From PMC5347347, “A Localized Complex of Two Protein Oligomers Controls the Orientation of Cell Polarity” (mBio, 2017)
Each block holds one molecule with its values, some of them ahead of it.

Assays:
[1] = target: SpmX-L (SpmX lysozyme-like domain alone, residues 1 to 155) (Caulobacter crescentus); assay: MST; Atto-488-labelled SpmX* or SpmX-L* held constant at 25 nM; PopZ (max 10 μM), DivJ (max 40 μM) or unlabelled SpmX titrated in 2-fold serial dilutions; incubated 10 min at room temperature; fitted by the law of mass action
[2] = target: SpmX (purified WT SpmX without its transmembrane region, residues 1 to 355) (Caulobacter crescentus); assay: as above
[3] = target: SpmX E19R (purified) (Caulobacter crescentus); assay: SEC; analytical size exclusion, Superdex 200 Increase 10/300 GL; apparent masses from a Bio-Rad gel filtration standard; purified SpmX variants alone
[4] = target: PopZ (purified, His-tagged) (Caulobacter crescentus); assay: SPR; PopZ immobilised on the sensor chip; 2-fold serial dilutions of WT SpmX or SpmX-L injected, with washes between injections
[5] = target: the molecule itself; assay: MST; Atto-488-labelled SpmX* or SpmX-L* held constant at 25 nM; PopZ (max 10 μM), DivJ (max 40 μM) or unlabelled SpmX titrated in 2-fold serial dilutions; incubated 10 min at room temperature; fitted by the law of mass action
[6] = target: T1, DivJ histidine kinase (purified without its TM regions, His-tagged) (Caulobacter crescentus, UniProt Q03228 189-597); assay: as above; conditions: both partners purified
T1 construct: DivJ histidine kinase, Caulobacter crescentus, purified without its TM regions (the cytoplasmic portion); Construct limits are expected in Text S1; also called cytoplasmic portion of DivJ; source: purified, His-tagged
T1 sequence (looked up): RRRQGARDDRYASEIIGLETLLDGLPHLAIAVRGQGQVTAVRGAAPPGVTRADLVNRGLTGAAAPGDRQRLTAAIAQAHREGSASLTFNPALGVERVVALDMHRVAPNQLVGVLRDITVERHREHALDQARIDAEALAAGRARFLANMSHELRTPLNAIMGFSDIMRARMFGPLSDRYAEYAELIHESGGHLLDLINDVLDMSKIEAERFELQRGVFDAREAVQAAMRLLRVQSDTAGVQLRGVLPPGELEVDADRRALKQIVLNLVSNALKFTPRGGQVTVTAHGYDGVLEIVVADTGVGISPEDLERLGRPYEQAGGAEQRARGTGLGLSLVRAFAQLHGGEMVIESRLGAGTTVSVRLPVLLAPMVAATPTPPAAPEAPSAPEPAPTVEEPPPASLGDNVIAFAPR

Chain of PopZ (purified, His-tagged) (Caulobacter crescentus) (A0A0H3C7Y4 entry or part of it): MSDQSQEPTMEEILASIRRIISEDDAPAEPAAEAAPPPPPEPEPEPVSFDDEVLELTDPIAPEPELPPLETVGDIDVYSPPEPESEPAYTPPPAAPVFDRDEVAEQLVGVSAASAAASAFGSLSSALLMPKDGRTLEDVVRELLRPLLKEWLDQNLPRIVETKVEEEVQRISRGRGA

Kd [2]: 600 nM
Kd [1]: 120 nM
Molecule: PopZ (purified, His-tagged) (natural protein)

overall SPR response relative to WT SpmX at comparable concentrations [4]: 2 fold
Molecule: SpmX-L (SpmX lysozyme-like domain alone, residues 1 to 155) (domain or fragment)

Further lines, the molecule ahead of its results:

Molecule: DivJ histidine kinase (purified without its TM regions, His-tagged) (from UniProt Q03228 189-597) (domain or fragment)
Kd [1]: 6300 nM

Molecule: SpmX E19R (purified) (domain or fragment)
stoichiometry N [3]: 4

B1: SpmX (purified WT SpmX without its transmembrane region, residues 1 to 355) (domain or fragment, Caulobacter crescentus, UniProt A0A0H3C9Y4 1-355, looked up)
chain: MKPRHQVSRAAVDLIKRFEGYRQKAAQLPDGRWTVGYGHTLTAREGASVSEKDAEALLLYDLISVAHSVNEHTYTPLNQNQFDALVCFAFNIGLDNFLRSGVLRRINEGSLLQAACAMEMWRKADFEGERIVIDALVRRRSAEKTLFLTPANGEWVPAPSPVLRPKVDYDASCAVPKQTPATVNTRTEGDRVIAQREEGLPLNVVVPEEDAPTATEQSAAAVAARLEAILPETPSAPASMAKPAMRQDDLGLPEPPAPTQPAAMEPAPVLFEAEPQPAPVEPPPAAPVEFTPFRLTPQASEQAEAPVEAPAPTRPAPSEPTLFGAPATGSSVFNLDGFSTSEDATVGVMDVPLVE
modifications: Atto-488 on lysine residues, approximately one dye molecule per protein (only the labelled copy SpmX* held constant in MST; unlabelled as titrant and in SPR, SEC and native gel)
notes: purified without the TM region, residues 1 to 355; predicted monomeric mass 40.1 kDa; Forms higher-order oligomers (void volume in SEC, ladder in native gel); Construct details are in Text S1; also called SpmX-ΔTM; source: purified, His-tagged
Kd [1]: 630 nM
Kd [5]: 360 ± 50 nM
Kd [6]: 510 ± 90 nM
